{"source": "ChEMBL document CHEMBL6127040", "about": "“Discovery and optimization of isoliquiritigenin as a death-associated protein kinase 1 inhibitor” (Eur J Med Chem, 2024)", "proteins": {"B1": {"name": "Death-associated protein kinase 1 (Homo sapiens), P53355 (protein)", "chain": "MTVFRQENVDDYYDTGEELGSGQFAVVKKCREKSTGLQYAAKFIKKRRTKSSRRGVSREDIEREVSILKEIQHPNVITLHEVYENKTDVILILELVAGGELFDFLAEKESLTEEEATEFLKQILNGVYYLHSLQIAHFDLKPENIMLLDRNVPKPRIKIIDFGLAHKIDFGNEFKNIFGTPEFVAPEIVNYEPLGLEADMWSIGVITYILLSGASPFLGDTKQETLANVSAVNYEFEDEYFSNTSALAKDFIRRLLVKDPKKRMTIQDSLQHPWIKPKDTQQALSRKASAVNMEKFKKFAARKKWKQSVRLISLCQRLSRSFLSRSNMSVARSDDTLDEEDSFVMKAIIHAINDDNVPGLQHLLGSLSNYDVNQPNKHGTPPLLIAAGCGNIQILQLLIKRGSRIDVQDKGGSNAVYWAARHGHVDTLKFLSENKCPLDVKDKSGEMALHVAARYGHADVAQLLCSFGSNPNIQDKEEETPLHCAAWHGYYSVAKALCEAGCNVNIKNREGETPLLTASARGYHDIVECLAEHGADLNACDKDGHIALHLAVRRCQMEVIKTLLSQGCFVDYQDRHGNTPLHVACKDGNMPIVVALCEANCNLDISNKYGRTPLHLAANNGILDVVRYLCLMGASVEALTTDGKTAEDLARSEQHEHVAGLLARLRKDTHRGLFIQQLRPTQNLQPRIKLKLFGHSGSGKTTLVESLKCGLLRSFFRRRRPRLSSTNSSRFPPSPLASKPTVSVSINNLYPGCENVSVRSRSMMFEPGLTKGMLEVFVAPTHHPHCSADDQSTKAIDIQNAYLNGVGDFSVWEFSGNPVYFCCYDYFAANDPTSIHVVVFSLEEPYEIQLNQVIFWLSFLKSLVPVEEPIAFGGKLKNPLQVVLVATHADIMNVPRPAGGEFGYDKDTSLLKEIRNRFGNDLHISNKLFVLDAGASGSKDMKVLRNHLQEIRSQIVSVCPPMTHLCEKIISTLPSWRKLNGPNQLMSLQQFVYDVQDQLNPLASEEDLRRIAQQLHSTGEINIMQSETVQDVLLLDPRWLCTNVLGKLLSVETPRALHHYRGRYTVEDIQRLVPDSDVEELLQILDAMDICARDLSSGTMVDVPALIKTDNLHRSWADEEDEVMVYGGVRIVPVEHLTPFPCGIFHKVQVNLCRWIHQQSTEGDADIRLWVNGCKLANRGAELLVLLVNHGQGIEVQVRGLETEKIKCCLLLDSVCSTIENVMATTLPGLLTVKHYLSPQQLREHHEPVMIYQPRDFFRAQTLKETSLTNTMGGYKESFSSIMCFGCHDVYSQASLGMDIHASDLNLLTRRKLSRLLDPPDPLGKDWCLLAMNLGLPDLVAKYNTSNGAPKDFLPSPLHALLREWTTYPESTVGTLMSKLRELGRRDAADFLLKASSVFKINLDGNGQEAYASSCNSGTSYNSISSVVSR"}}, "settings_in_all_cases": "Homo sapiens; time 1.0 hrs", "key": {"[1]": {"substrate": "COc1cc(/C=C/C(=O)c2ccc(O)cc2O)ccc1O", "description": "(§1) Binding affinity to DAPK1 (unknown origin) assessed as catalytic rate incubated for 1 hr in presence of ATP by malachite green assay (Rvb = 3.0 +/- 0.15 /min)"}, "[2]": {"substrate": "Cc1cc(O)ccc1/C=C/C(=O)c1ccc(O)cc1O", "description": "as §1"}, "[3]": {"substrate": "O=C(/C=C/c1ccc(O)cc1)c1ccc(O)cc1O", "description": "as §1"}, "[4]": {"substrate": "CCCc1cc(/C=C/C(=O)c2ccc(O)cc2O)ccc1O", "description": "as §1"}, "[5]": {"substrate": "C=CCc1cc(/C=C/C(=O)c2ccc(O)cc2O)ccc1O", "description": "as §1"}, "[6]": {"substrate": "O=C(/C=C/c1ccc(O)c(O)c1)c1ccc(O)cc1O", "description": "as §1"}, "[7]": {"substrate": "COc1cc(/C=C/C(=O)c2ccc(O)cc2O)ccc1O", "remark": "listed apart in the source"}, "[8]": {"substrate": "Cc1cc(O)ccc1/C=C/C(=O)c1ccc(O)cc1O", "remark": "listed apart in the source"}, "[9]": {"substrate": "O=C(/C=C/c1ccc(O)cc1)c1ccc(O)cc1O", "remark": "listed apart in the source"}, "[10]": {"substrate": "CCCc1cc(/C=C/C(=O)c2ccc(O)cc2O)ccc1O", "remark": "listed apart in the source"}, "[11]": {"substrate": "C=CCc1cc(/C=C/C(=O)c2ccc(O)cc2O)ccc1O", "remark": "listed apart in the source"}, "[12]": {"substrate": "O=C(/C=C/c1ccc(O)c(O)c1)c1ccc(O)cc1O", "remark": "listed apart in the source"}, "[13]": {"substrate": "COc1cc(/C=C/C(=O)c2ccc(O)cc2O)ccc1O", "remark": "listed apart in the source"}, "[14]": {"substrate": "Cc1cc(O)ccc1/C=C/C(=O)c1ccc(O)cc1O", "remark": "listed apart in the source"}, "[15]": {"substrate": "O=C(/C=C/c1ccc(O)cc1)c1ccc(O)cc1O", "remark": "listed apart in the source"}, "[16]": {"substrate": "CCCc1cc(/C=C/C(=O)c2ccc(O)cc2O)ccc1O", "remark": "listed apart in the source"}, "[17]": {"substrate": "C=CCc1cc(/C=C/C(=O)c2ccc(O)cc2O)ccc1O", "remark": "listed apart in the source"}, "[18]": {"substrate": "O=C(/C=C/c1ccc(O)c(O)c1)c1ccc(O)cc1O", "remark": "listed apart in the source"}}}
{"protein": "B1", "values": [{"measurement": "kcat", "setting": "[1]", "value": 0.0383, "unit": "s⁻¹"}, {"measurement": "kcat", "setting": "[2]", "value": 0.0383, "unit": "s⁻¹"}, {"measurement": "kcat", "setting": "[3]", "value": 0.0483, "unit": "s⁻¹"}, {"measurement": "kcat", "setting": "[4]", "value": 0.035, "unit": "s⁻¹"}, {"measurement": "kcat", "setting": "[5]", "value": 0.025, "unit": "s⁻¹"}, {"measurement": "kcat", "setting": "[6]", "value": 0.0367, "unit": "s⁻¹"}, {"measurement": "Km", "setting": "[7]", "value": 59, "unit": "µM"}, {"measurement": "Km", "setting": "[8]", "value": 48, "unit": "µM"}, {"measurement": "Km", "setting": "[9]", "value": 43, "unit": "µM"}, {"measurement": "Km", "setting": "[10]", "value": 28, "unit": "µM"}, {"measurement": "Km", "setting": "[11]", "value": 21, "unit": "µM"}, {"measurement": "Km", "setting": "[12]", "value": 60, "unit": "µM"}, {"measurement": "kcat/Km", "setting": "[13]", "value": 417, "unit": "M⁻¹ s⁻¹"}, {"measurement": "kcat/Km", "setting": "[14]", "value": 650, "unit": "M⁻¹ s⁻¹"}, {"measurement": "kcat/Km", "setting": "[15]", "value": 600, "unit": "M⁻¹ s⁻¹"}, {"measurement": "kcat/Km", "setting": "[16]", "value": 583, "unit": "M⁻¹ s⁻¹"}, {"measurement": "kcat/Km", "setting": "[17]", "value": 1130, "unit": "M⁻¹ s⁻¹"}, {"measurement": "kcat/Km", "setting": "[18]", "value": 417, "unit": "M⁻¹ s⁻¹"}]}
